T1: GST-ERBIN PDZ domain 1 (Homo sapiens (Human)), Q96RT1
T1 chain: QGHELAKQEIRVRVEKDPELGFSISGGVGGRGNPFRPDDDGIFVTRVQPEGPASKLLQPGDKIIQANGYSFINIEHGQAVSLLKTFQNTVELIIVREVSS

T2: GST-NeDLG PDZ domains 1, 2, Q92796
T2 chain: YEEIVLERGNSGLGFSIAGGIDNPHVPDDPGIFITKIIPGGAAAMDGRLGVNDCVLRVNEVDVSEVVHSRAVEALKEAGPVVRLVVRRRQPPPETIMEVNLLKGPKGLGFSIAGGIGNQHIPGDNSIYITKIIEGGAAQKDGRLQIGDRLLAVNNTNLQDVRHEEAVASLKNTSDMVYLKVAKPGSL

T3: GST-TIP1 PDZ domain 1 (Table 9 insert) (Homo sapiens (Human)), O14907
T3 chain: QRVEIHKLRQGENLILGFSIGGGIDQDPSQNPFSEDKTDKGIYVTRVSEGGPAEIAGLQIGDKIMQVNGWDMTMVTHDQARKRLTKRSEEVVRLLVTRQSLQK

T4: GST-KIAA0147 PDZ domain 3 (Homo sapiens (Human)), Q14160
T4 chain: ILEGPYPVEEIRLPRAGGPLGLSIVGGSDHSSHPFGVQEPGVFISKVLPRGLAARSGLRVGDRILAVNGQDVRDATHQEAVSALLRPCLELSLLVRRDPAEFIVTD

T5: GST-FLJ 10324 PDZ domain 1 [GST: P08515]
T5 chain: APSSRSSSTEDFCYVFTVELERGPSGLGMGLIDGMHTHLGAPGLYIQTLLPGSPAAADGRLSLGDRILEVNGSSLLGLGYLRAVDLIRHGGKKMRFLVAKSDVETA

T6: GST-ZO-2 PDZ domain 2 (Homo sapiens (Human)), Q9UDY2
T6 chain: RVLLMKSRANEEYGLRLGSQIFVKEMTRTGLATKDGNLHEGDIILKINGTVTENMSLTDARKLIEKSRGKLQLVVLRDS

T7: GST-MINT1 PDZ domain 1 (Mus musculus (Mouse)), B2RUJ5
T7 chain: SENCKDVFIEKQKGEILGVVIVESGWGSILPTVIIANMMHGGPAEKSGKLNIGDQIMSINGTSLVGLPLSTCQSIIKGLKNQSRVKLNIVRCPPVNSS

T8: GST-KIAA0973 PDZ domain 1 (Homo sapiens (Human)), Q9Y2H9
T8 chain: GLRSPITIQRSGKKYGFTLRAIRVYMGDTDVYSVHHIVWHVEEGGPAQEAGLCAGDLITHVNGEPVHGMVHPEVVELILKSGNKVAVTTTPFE

T9: GST-novel PDZ gene PDZ domain 1 (Homo sapiens (Human)), Q9H5P4
T9 chain: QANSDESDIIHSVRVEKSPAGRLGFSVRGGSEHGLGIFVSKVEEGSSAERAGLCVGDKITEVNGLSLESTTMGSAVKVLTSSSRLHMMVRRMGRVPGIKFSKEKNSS

T10: GST-SYNTENIN PDZ domain 1 (Homo sapiens (Human)), O00560
T10 chain: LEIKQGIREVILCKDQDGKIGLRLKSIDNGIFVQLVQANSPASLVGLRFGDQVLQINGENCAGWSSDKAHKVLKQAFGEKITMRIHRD

T11: GST-ZO-1 PDZ domain 1 (Rattus norvegicus (Rat)), A0A0G2
T11 chain: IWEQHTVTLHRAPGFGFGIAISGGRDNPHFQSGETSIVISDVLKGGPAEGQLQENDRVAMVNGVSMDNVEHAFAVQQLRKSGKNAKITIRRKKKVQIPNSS

T12: GST-MUPP1 PDZ domain 11 (Homo sapiens (Human)), O75970
T12 chain: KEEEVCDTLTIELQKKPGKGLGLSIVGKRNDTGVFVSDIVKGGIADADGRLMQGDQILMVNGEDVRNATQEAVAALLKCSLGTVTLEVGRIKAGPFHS

T13: GST-PTPL1 PDZ domain 4 (Homo sapiens (Human)), Q12923
T13 chain: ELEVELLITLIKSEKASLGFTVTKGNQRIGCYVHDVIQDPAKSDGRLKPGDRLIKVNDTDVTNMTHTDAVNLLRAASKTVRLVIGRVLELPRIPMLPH

T14: GST-INADL PDZ domain 5 (Homo sapiens (Human)), Q8NI35
T14 chain: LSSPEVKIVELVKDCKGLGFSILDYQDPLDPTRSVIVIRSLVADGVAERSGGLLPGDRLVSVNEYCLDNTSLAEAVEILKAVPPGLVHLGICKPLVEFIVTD

T15: GST-MUPP1 PDZ domain 5 (Homo sapiens (Human)), O75970
T15 chain: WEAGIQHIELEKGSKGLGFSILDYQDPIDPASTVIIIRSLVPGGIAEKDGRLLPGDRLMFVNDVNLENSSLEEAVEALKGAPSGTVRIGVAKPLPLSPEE

B1: TAX (peptide)
peptide: QISPGGLEPPSEKHFRETEV
modifications: not checked
B2: alpha-2A Adrenergic receptor (peptide)
peptide: HDFRRAFKKILARGDRKRIV
modifications: not checked
B3: a-actinin 2 (peptide)
peptide: VPGALDYAAFSSALYGESDL
modifications: not checked
B4: LPAP (peptide)
peptide: AWDDSARAAGGQGLHVTAL
modifications: not checked
B5: ephrin B2 (peptide)
peptide: ILNSIQVMRAQMNQIQSVEV
modifications: not checked
B6: catenin - delta 2 (peptide)
peptide: PYSELNYETSHYPASPDSWV
modifications: not checked
B7: NMDA Glutamate Receptor 2C (cysteine-free) (peptide)
peptide: TQGFPGPATWRRISSLESEV
modifications: not checked
B8: AdenoE4 typ9 (peptide)
peptide: VGTLLLERVIFPSVKIATLV
modifications: not checked
B9: KIA 1481 (peptide)
peptide: PIPAGGCTFSGIFPTLTSPL
modifications: not checked
B10: MINT-1 (peptide)
peptide: KTMPAAMYRLLTAQEQPVYI
modifications: not checked
B11: CSPG4 (chondroitin sulfae proteoglycan 4, melanoma-associated) (peptide)
peptide: ELLQFCRTPNPALKNGQYWV
modifications: not checked

Experiments:
Assay in all cases: G' assay
[1] = biological target: T1, GST-ERBIN PDZ domain 1 (Homo sapiens …)
[2] = biological target: GST-KIAA1634 PDZ domain 1 (Homo sapiens (Human)), Q5TCQ9
[3] = biological target: T2, GST-NeDLG PDZ domains 1, 2, Q92796
[4] = biological target: T3, GST-TIP1 PDZ domain 1 (Table 9 insert) …
[5] = biological target: T4, GST-KIAA0147 PDZ domain 3 (Homo sapiens …)
[6] = biological target: GST-BAI-1 Associated Protein PDZ domain 2 (Mus musculus (Mouse)), Q6RHR9
[7] = biological target: GST-Atrophin-1 Interacting Protein PDZ domain 1 (Rattus norvegicus (Rat)), O88382
[8] = biological target: GST-DLG1 PDZ domains 1, 2 (Homo sapiens), Q12959
[9] = biological target: GST-KIAA1634 PDZ domain 4 (Homo sapiens (Human)), Q5TCQ9
[10] = biological target: GST-DLG1 PDZ domain 1 (Homo sapiens), Q12959
[11] = biological target: T5, GST-FLJ 10324 PDZ domain 1 [GST: P08515]
[12] = biological target: T6, GST-ZO-2 PDZ domain 2 (Homo sapiens …)
[13] = biological target: T7, GST-MINT1 PDZ domain 1 (Mus musculus …)
[14] = biological target: GST-PAR3 PDZ domain 3 (Homo sapiens (Human)), Q8TEW0
[15] = biological target: T8, GST-KIAA0973 PDZ domain 1 (Homo sapiens …)
[16] = biological target: T9, GST-novel PDZ gene PDZ domain 1 (Homo …)
[17] = biological target: T10, GST-SYNTENIN PDZ domain 1 (Homo sapiens …)
[18] = biological target: T11, GST-ZO-1 PDZ domain 1 (Rattus …)
[19] = biological target: T12, GST-MUPP1 PDZ domain 11 (Homo sapiens …)
[20] = biological target: T13, GST-PTPL1 PDZ domain 4 (Homo sapiens …)
[21] = biological target: T14, GST-INADL PDZ domain 5 (Homo sapiens …)
[22] = biological target: T15, GST-MUPP1 PDZ domain 5 (Homo sapiens …)
Note: key of the grades not given here.

Chain of GST-Atrophin-1 Interacting Protein PDZ domain 1 (Rattus norvegicus (Rat)), O88382 (O88382 408-511): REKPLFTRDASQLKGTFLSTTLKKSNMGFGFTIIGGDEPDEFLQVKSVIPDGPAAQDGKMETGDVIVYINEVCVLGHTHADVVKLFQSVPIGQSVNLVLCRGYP
Chain of GST-KIAA1634 PDZ domain 4 (Homo sapiens (Human)), Q5TCQ9 (Q5TCQ9 844-945): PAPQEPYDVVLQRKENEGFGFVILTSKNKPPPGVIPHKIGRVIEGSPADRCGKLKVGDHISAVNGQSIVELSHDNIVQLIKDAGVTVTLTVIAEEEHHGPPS
Chain of GST-PAR3 PDZ domain 3 (Homo sapiens (Human)), Q8TEW0 (Q8TEW0 579-681): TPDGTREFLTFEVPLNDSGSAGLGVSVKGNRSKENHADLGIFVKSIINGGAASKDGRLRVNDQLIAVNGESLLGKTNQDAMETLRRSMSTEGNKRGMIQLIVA
Chain of GST-BAI-1 Associated Protein PDZ domain 2 (Mus musculus (Mouse)), Q6RHR9 (Q6RHR9 455-558): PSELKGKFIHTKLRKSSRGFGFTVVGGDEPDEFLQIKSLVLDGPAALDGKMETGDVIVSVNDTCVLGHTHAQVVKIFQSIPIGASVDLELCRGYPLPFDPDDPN
Chain of GST-KIAA1634 PDZ domain 1 (Homo sapiens (Human)), Q5TCQ9 (Q5TCQ9 401-502): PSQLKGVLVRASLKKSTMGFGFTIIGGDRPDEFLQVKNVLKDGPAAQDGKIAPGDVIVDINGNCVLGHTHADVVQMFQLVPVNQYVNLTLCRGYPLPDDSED

Binder | Classification [1] [A450 class] | Classification [2] [A450 class] | Classification [4] [A450 class] | Classification [6] [A450 class] | Classification [7] [A450 class] | Classification [8] [A450 class] | Classification [10] [A450 class] | Classification [11] [A450 class] | Classification [13] [A450 class] | Classification [14] [A450 class] | Classification [15] [A450 class] | Classification [18] [A450 class] | Classification [19] [A450 class] | Classification [20] [A450 class] | Classification [21] [A450 class] | further results
B1 | 5 | 5 | 5 | 5 | 5 | 5 | 5 | 1 |  |  |  |  |  |  |  | Classification [3]: 5 A450 class; Classification [5]: 1 A450 class; Classification [9]: 2 A450 class
B2 |  |  |  |  |  |  |  | 1 | 1 | 2 |  |  |  |  |  | Classification [12]: 2 A450 class
B3 | 1 |  | 5 | 1 |  | 1 |  |  |  | 1 | 2 |  |  |  |  | Classification [5]: 3 A450 class; Classification [16]: 2 A450 class
B4 |  |  | 5 | 2 |  |  |  | 1 |  |  |  |  |  |  |  | 
B5 |  |  | 2 |  |  |  |  | 2 | 1 | 2 | 2 | 3 | 2 | 2 |  | Classification [12]: 1 A450 class; Classification [17]: 1 A450 class; Classification [16]: 2 A450 class
B6 | 4 |  | 3 |  |  | 3 | 1 | 3 |  | 1 |  |  |  | 1 | 1 | 
B7 | 4 | 5 | 5 | 4 | 5 | 5 | 5 |  |  |  | 1 |  |  |  | 1 | Classification [3]: 5 A450 class; Classification [5]: 1 A450 class; Classification [22]: 1 A450 class; Classification [9]: 1 A450 class
B8 |  | 5 |  | 5 | 5 | 5 | 4 | 3 |  |  |  | 2 | 5 | 4 |  | Classification [3]: 5 A450 class; Classification [9]: 4 A450 class
B9 |  | 2 | 2 | 2 |  |  |  |  |  |  | 2 |  |  |  | 1 | Classification [16]: 1 A450 class
B10 |  |  |  |  |  |  |  | 5 | 3 | 5 |  | 1 | 5 | 5 |  | Classification [17]: 3 A450 class; Classification [22]: 2 A450 class
B11 | 3 | 5 | 1 | 2 | 1 |  |  | 5 | 2 | 3 |  | 5 | 5 | 5 | 5 | Classification [12]: 1 A450 class; Classification [17]: 2 A450 class; Classification [22]: 5 A450 class

— patent US20050282743A1, “Molecular interactions in cells” (Arbor Vita Corporation, priority 2001, published 2005)
